Assay results taken from article PMC8501021, “Nuclear transporter Importin-13 plays a key role in the oxidative stress transcriptional response” (Nature Communications, 2021).

Experiments:
[1] = biological target: T1, GFP-KLF4 (eGFP fused to full-length mouse Kruppel like factor 4) (mouse, UniProt Q60793 1-483); assay: co-IP; HeLa cells co-expressing GFP, GFP-KLF4 or GFP-SP1 with DSRED-IPO13; treated with or without 125 uM H2O2 for 1 h before lysis; lysates with or without GTPgammaS (1.7 mM, 20 min on ice); precipitated with GFP-Trap resin; Western blot with anti-GFP and anti-IPO13; conditions: partners not purified
T1 construct: Kruppel like factor 4 (KLF4), mouse, full length; inserted in-frame at BamHI and HindIII of pEGFP-C1, C-terminal to eGFP; also called GFP-tagged KLF4; source: HeLa, transfected (pEGFP-C1 construct), in lysate; not shown: eGFP, N-terminal, kept
T1 sequence (Q60793 whole entry, the tested form may be a part): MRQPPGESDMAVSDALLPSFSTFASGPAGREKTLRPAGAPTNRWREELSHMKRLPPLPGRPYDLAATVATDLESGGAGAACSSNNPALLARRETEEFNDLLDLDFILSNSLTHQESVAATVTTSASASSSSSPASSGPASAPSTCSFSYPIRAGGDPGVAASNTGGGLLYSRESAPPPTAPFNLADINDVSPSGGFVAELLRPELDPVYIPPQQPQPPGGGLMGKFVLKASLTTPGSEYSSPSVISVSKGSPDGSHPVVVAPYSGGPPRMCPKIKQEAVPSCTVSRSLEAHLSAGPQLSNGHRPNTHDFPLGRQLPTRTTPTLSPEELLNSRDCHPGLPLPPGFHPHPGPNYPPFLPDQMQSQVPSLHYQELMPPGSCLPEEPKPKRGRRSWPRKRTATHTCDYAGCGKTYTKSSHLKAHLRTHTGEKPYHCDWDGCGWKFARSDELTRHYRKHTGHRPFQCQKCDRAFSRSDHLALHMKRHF

[2] = biological target: T2, GFP-SP1 (GFP fused to specificity protein 1) (UniProt P08047 1-785); assay: as above; conditions: partners not purified
T2 construct: Specificity protein 1 (SP1); plasmid from Jan-Jong Hung (National Cheng Kung University, Taiwan); Construct was a gift; also called GFP-tagged SP1; source: HeLa, transfected, in lysate
T2 sequence (P08047 whole entry, the tested form may be a part): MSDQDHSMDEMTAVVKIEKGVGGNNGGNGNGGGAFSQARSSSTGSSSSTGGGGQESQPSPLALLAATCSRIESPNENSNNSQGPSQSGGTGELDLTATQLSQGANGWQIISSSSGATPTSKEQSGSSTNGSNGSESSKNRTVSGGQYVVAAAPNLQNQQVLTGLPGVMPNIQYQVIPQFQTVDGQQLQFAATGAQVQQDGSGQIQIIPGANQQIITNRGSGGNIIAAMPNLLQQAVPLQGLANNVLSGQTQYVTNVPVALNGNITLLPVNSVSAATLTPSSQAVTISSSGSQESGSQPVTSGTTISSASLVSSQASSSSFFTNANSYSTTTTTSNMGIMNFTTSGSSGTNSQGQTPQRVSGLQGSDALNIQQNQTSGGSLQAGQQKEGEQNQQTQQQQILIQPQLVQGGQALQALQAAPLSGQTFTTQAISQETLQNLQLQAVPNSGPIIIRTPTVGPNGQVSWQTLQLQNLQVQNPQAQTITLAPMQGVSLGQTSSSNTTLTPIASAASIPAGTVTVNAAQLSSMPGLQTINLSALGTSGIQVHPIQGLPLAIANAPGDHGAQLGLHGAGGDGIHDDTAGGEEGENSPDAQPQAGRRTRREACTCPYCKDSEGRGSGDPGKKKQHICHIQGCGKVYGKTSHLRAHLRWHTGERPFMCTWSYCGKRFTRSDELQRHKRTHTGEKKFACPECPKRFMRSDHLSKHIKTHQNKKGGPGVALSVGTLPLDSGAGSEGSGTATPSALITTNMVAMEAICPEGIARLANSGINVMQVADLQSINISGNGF

B1: DSRED-IPO13 (Importin-13 fused to the DsRed2 fluorescent protein) (natural protein, UniProt O94829 1-963, looked up)
chain: MERREEQPGAAGAGAAPALDFTVENVEKALHQLYYDPNIENKNLAQKWLMQAQVSPQAWHFSWQLLQPDKVPEIQYFGASALHIKISRYWSDIPTDQYESLKAQLFTQITRFASGSKIVLTRLCVALASLALSMMPDAWPCAVADMVRLFQAEDSPVDGQGRCLALLELLTVLPEEFQTSRLPQYRKGLVRTSLAVECGAVFPLLEQLLQQPSSPSCVRQKVLKCFSSWVQLEVPLQDCEALIQAAFAALQDSELFDSSVEAIVNAISQPDAQRYVNTLLKLIPLVLGLQEQLRQAVQNGDMETSHGICRIAVALGENHSRALLDQVEHWQSFLALVNMIMFCTGIPGHYPVNETTSSLTLTFWYTLQDDILSFEAEKQAVYQQVYRPVYFQLVDVLLHKAQFPSDEEYGFWSSDEKEQFRIYRVDISDTLMYVYEMLGAELLSNLYDKLGRLLTSSEEPYSWQHTEALLYGFQSIAETIDVNYSDVVPGLIGLIPRISISNVQLADTVMFTIGALSEWLADHPVMINSVLPLVLHALGNPELSVSSVSTLKKICRECKYDLPPYAANIVAVSQDVLMKQIHKTSQCMWLMQALGFLLSALQVEEILKNLHSLISPYIQQLEKLAEEIPNPSNKLAIVHILGLLSNLFTTLDISHHEDDHEGPELRKLPVPQGPNPVVVVLQQVFQLIQKVLSKWLNDAQVVEAVCAIFEKSVKTLLDDFAPMVPQLCEMLGRMYSTIPQASALDLTRQLVHIFAHEPAHFPPIEALFLLVTSVTLTLFQQGPRDHPDIVDSFMQLLAQALKRKPDLFLCERLDVKAVFQCAVLALKFPEAPTVKASCGFFTELLPRCGEVESVGKVVQEDGRMLLIAVLEAIGGQASRSLMDCFADILFALNKHCFSLLSMWIKEALQPPGFPSARLSPEQKDTFSQQILRERVNKRRVKEMVKEFTLLCRGLHGTDYTADY
notes: Importin-13 (IPO13); PCR generated IPO13 insert put into pDsRed2-C1 at EcoRI and SmaI; also called dsRed2-IPO13; DSRED-tagged IPO13; source: HeLa, transfected (pDsRed2-fused IPO13), in lysate
fold increase in co-precipitation with GTPgammaS against no addition, H2O2 treated cells [1]: ~2 fold
fold increase in co-precipitation with GTPgammaS against no addition, H2O2 treated cells [2]: ~2 fold
